# Measurements published in patent US20250263466A1 (VIR BIOTECHNOLOGY, published 2025).
# T1: MERS-CoV S protein (London1/2012) expressed on ExpiCHO cells (MERS-CoV, UniProt K9N5Q8 18-1353)
# T1 sequence: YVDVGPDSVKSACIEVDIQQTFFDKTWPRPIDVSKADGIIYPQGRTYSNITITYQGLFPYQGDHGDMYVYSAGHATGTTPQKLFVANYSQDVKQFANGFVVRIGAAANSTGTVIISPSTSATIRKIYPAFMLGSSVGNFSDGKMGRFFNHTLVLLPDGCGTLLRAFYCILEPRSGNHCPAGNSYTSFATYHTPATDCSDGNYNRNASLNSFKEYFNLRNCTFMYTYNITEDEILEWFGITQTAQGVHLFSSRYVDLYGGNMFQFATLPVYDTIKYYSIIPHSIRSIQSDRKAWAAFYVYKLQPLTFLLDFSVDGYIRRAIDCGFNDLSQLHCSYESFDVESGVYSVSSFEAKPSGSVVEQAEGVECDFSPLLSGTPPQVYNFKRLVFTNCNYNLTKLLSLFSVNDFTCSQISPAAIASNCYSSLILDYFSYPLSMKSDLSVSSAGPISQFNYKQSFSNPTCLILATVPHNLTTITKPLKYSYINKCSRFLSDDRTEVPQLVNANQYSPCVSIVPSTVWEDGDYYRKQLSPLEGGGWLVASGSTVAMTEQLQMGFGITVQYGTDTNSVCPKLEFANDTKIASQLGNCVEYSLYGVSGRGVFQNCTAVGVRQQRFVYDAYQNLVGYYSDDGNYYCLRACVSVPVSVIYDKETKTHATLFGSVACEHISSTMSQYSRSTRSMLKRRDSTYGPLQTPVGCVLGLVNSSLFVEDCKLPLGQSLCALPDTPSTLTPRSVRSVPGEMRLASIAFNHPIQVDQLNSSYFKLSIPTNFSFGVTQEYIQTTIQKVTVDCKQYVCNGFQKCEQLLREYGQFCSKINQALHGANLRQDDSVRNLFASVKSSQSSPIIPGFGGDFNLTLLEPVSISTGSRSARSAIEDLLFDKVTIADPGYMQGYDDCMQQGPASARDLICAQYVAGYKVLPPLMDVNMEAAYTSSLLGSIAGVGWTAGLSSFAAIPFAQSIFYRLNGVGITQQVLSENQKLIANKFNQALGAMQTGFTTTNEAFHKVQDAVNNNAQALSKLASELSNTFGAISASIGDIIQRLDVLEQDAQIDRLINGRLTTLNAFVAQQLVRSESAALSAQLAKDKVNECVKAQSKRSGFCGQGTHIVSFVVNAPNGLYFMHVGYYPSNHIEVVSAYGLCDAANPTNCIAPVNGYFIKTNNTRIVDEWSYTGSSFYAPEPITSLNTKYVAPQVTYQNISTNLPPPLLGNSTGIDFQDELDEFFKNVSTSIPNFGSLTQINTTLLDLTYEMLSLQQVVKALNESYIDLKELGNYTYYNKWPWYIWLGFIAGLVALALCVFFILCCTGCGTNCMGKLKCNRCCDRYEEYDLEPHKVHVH
# Columns and labels:
# [1] = target: T1, MERS-CoV S protein (London1/2012) …; assay: flow cytometry on ExpiCHO cells transfected with MERS-CoV S
# [2] = target: SARS-CoV S protein (Urbani strain) expressed on ExpiCHO cells (SARS-CoV, UniProt P59594 14-1255); assay: flow cytometry on ExpiCHO cells transfected with SARS-CoV S
Binder,binding result [1],binding result [2]
"nCoV-6 mAb (antibody, V domains shown) VH: QVTLKESGPVLVKPTETLTLTCTVSVFSLSNARMGVSWIRQPPGKALEWLAHIFSSDQKSYSTSLKSRLTISKDTSKSQVVLTMTNMDPEDTGTYYCARINTAAYDYDSTTFDIWGQGTMVTVSS VL: DIQMTQSPSSLSASVGDRVTITCRASQTISNYLNWYQQKPGKAPKLLLYAASSLQSGVPSRFSGSGSGTDFTLTISSLQLEDFATYYCQQSYSTPPTFGGGTKVEIK",no binding (tested: 10 µg/ml),binds
"nCoV-8 mAb (antibody, V domains shown) VH: EVLLVESGGGLVQPGRSLRLSCVVSGFTFDYYAMHWVRQAPGKGLEWVSGISWNSDNTDYADSVKGRFTISRDNAKNSLYLQMNSLKTEDTALYYCAKDISLVFWSVNPPRNGMDVWGQGTTVTVSS VL: DIQMTQSPSSLSASVGDRVTITCRASQSIRSYLNWYQQKPGKAPNLLIYTASSLQSGVPSRFSGSGSGTDFTLTISSLQPEDFATYYCQQSYSSPLTFGGGTKVEIK",no binding (tested: 1.5 µg/ml),binds
"nCoV-4 mAb (antibody, V domains shown) VH: QVQLVESGGGVVQPGRSLRLSCEASGFTLRTSSLHWVRQAPGKGLEWVAVISNDGATKFYADAVKGRFTISRDNSNNKIYLQLNGLKPEDTAVYYCARETRHYSHGLNWFDPWGQGTLVNVSS VL: not shown",no binding (tested: 10 µg/ml),
"nCoV-15 mAb (antibody, V domains shown) VH: EVQLVESGGGLVTPGRSLRLSCTASGFTFGDYALSWFRQAPGKGLEWVAFIRSKAYGGTTEYAASVKGRFTISRDDSQIIVYLQMDSLKTEDTAVYYCSWIHRIVSWGQGTLVTVSS VL: DIQMTQSPSSLSASEGDRVTITCQASQDISIYLNWFQQKPGKAPKLLIYEASNLKTGVPSRFSGSGSGTDFTFTISSLQPEDIATYYCQQYDNLPYTFGQGTKLEIK",no binding (tested: 0.8 µg/ml),binds
"nCoV-9 mAb (antibody, V domains shown) VH: QVLLVESGGGVVQPGMSLRLSCAASGFTFSSYAMHWVRQAPGKGLEWVAVISYDGSTKFYADSVRGRFPISRDNSKNTVYLQMNSLRPEDTAVYYCATVSVEGYTSGWYLGTLDFWGQGTPVTVSS VL: not shown",no binding (tested: 8.5 µg/ml),binds
"nCoV-14 mAb (antibody, V domains shown) VH: QVQLVHSGAEVKKPGASVRVSCKASGYTYTAYYIHWLRQAPGQGLEWMGWINADNGDTHSVQKFQGRVTMTRDTSINTAYLEVSRLKSDDTAVYYCARGDVPVGTGWVFDFWGQGTLVTVSS VL: DIQMTQSPSSLSASVGDSVTISCRASQTINNFLNWYQQKPGKAPNLLIYGAYNLQSGVPSRFSGSGSGTDFTLTISSLQPEDVAIYYCQQSLSMVTFGQGTRLDIK",no binding (tested: 10 µg/ml),binds
"nCoV-7 mAb (antibody, V domains shown) VH: QEQVVESGGGVVQPGKSLRLSCAASGFSLNDFAIHWVRQAPGKRLEWVAIISYDGRVKFYADSVKGRFTISRDSSVHLQMDSLRPEDTGLYYCARDSSWQSTGWPINWFDRWGRGTLVTVSS VL: EIVLTQSPATLSLSPGQRATLSCRASQSVLSSLAWYQHKPGQAPRLLIYDASSRATGVPARFSGSGSETDFTLTISSLEPEDFAVYYCQQRSNWPPTFGQGTKVEIK",no binding (tested: 2 µg/ml),binds
"nCoV-2 mAb (antibody, V domains shown) VH: DVQLLESGGGLVQPGGSLRLSCAASGFSFSSYAMTWVRQAPGKGLEWVATMSASGDSTNDADSVKGRFTISRDNSKNTLFLQMNSLRPEDTAVYYCASPLRNYGDLLYWGQGTLVTVSS VL: DIQMTQSPSTLSASVGDRVTITCRASQNIHRFLAWYQQKPGKAPKLLIYTASSLESGVPSRFSGSGFGTEFTLTISSLQPDDFATYYCQQYNSYSWTFGQGTKVEIK",no binding (tested: 10 µg/ml),binds
"nCoV-12 mAb (antibody, V domains shown) VH: QVQLVESGGGVVQPGRSLRLSCAGSGFTFSSFGLHWVRQAPGKGLEWLALISDEGRIKYYANSVKGRFFISRDNSKNTLYLQMNSLRGEDTAVYYCARDVKGHIVVMTSLDYWGQGALVTVSS VL: DVVMTQSPLSLPVTLGQPASISCRSSQSLVSSDGDTSLSWFQQRPGQSPRRLIYEVSNRDSGVPDRFSGSGSGTDFTLKISRVEAEDVGVYYCMQGTHWPPTFGQGTKVEIK",no binding (tested: 0.8 µg/ml),binds
"nCoV-16 mAb (antibody, V domains shown) VH: QVQLVESGGGVVQPGRSLRLSCAASGFTFSSYGMHWVRQAPGKGLEWVAFISYDGSNIQYADSVQGRFTISRDNSKTTLYLQMNSLRVEDTAMYYCAKDLFGYCRSTSCESLDDWGQGALVTVSS VL: DIQLTQSPSFLSASVGDRVTITCRASQGISSYLAWYQQKPGKAPKLLIYAASTLQSGVPSRFSGTGYGTEFTLTISSLQPEDFATYYCQQLNNYPLTFGGGTKVEIK",no binding (tested: 10 µg/ml),binds
"nCoV-11 mAb (antibody, V domains shown) VH: LVQLVESGGGVVQPGRSLRLSCAGSGFTFSSYGMHWVRQTPGKGLEWVAVISFDGRNKFYADPVKGRFTISRDNSKNTVFLELDSLTTEDTAFYYCARDDNLDRHWPLRLGGYWGQGTLVTVSS VL: EIVMTQSPLSLPVTLGQPASISCRSSQDLLYNDGGTDLNWFQQRPGQSPRRLIYRVSNRDSGVPDRFSGSGSGSDFTLKISRVEAEDVGIYYCMQGAHWPPTFGPGTKVEIK",no binding (tested: 10 µg/ml),binds
"nCoV-13 mAb (antibody, V domains shown) VH: EVQLVESGGGLVKPGGSLRLSCAASGFTFSNYNMNWVRQAPGKGLEWVSSIGSSSTYIYSADSVKGRFTISRDNAMNSLFLQMKSLRAEDTAVYYCARGFERYYFDSWGQGTLVTVSS VL: QSVLTQPPSASGTPGQRVTISCSGSTSNIGTNVVNWYQQLPGTAPKLLIYSNNQRPSWVPDRFSGSKSGTSASLAISGLQSEDEADYYCVAWDDILNAVVFAGGTKLTVL",no binding (tested: 7 µg/ml),binds
"nCoV-5 mAb (antibody, V domains shown) VH: QMQLVQSGPEMKKPGTSVKVSCKASGFTFSKTTLQWVRQARGQRPEWIGWIVLGSGNTNYAHYFQARVTITRDMSTSTAYMELSSLSSEDTAVYYCAAEMATIQNYYYYYGMDVWGQGTTVTVSS VL: DIQMTQSPSSLSASVGDRVTITCRASQSINYYLNWYQQKPGKAPNLLIYAASSLPGGVPSRFSGSGSGTDFTLTITSLQPEDFATYFCQQSYSTPPTFGQGTKLEIK",no binding (tested: 1 µg/ml),binds
"nCoV-3 mAb (antibody, V domains shown) VH: EVQLLESGGGLVQPGGSLRLSCTASGFTFASYAMTWVRQAPGKGLEWVSTISGGGGDTYSADSVKGRFTISRDNSKSTLYLQMNSLRAADTALYYCARLESATQPLGYYFYGMDVWGQGTTVTVSS VL: SYELTQPPSVSVSPGQTARITCSGDALPKQYAFWYQQRPGQAPVLVISKDSERPSGIPERFSGSSSGTTVTLTISGVQAEDEADYYCHSADISATSWVFGGGTKLTVV",no binding (tested: 10 µg/ml),binds
